The source of these data is PMC11598873, “Neutralizing VHH Antibodies Targeting the Spike Protein of PEDV” (Veterinary Sciences, 2024).

For experiment [1], the target named is T1, PEDV S protein of strain PEDV-JSXH-2021 in infected Vero E6 cells (Porcine epidemic diarrhea virus, …, UniProt Q91AV1, strain). Briefly: cell-based or functional assay.
For experiment [2], the target named is T1, PEDV S protein of strain PEDV-JSXH-2021 …. Briefly: immunostaining of cells or tissue; IFA on Vero E6 cells infected with PEDV-JSXH-2021 (MOI 0.01, 48 h), fixed with 4% paraformaldehyde; purified VHH as primary antibody overnight at 4 °C, mouse anti-His tag, then Alexa Fluor 555 goat anti-mouse IgG; uninfected cells as mock. To be noted: one partner purified.

The target of experiment [3] is T2, Recombinant PEDV S protein, strain PEDV-JSXH-2021, 3 × FLAG (pFastBac1-PEDV-S, rBV-PEDV-S) (Porcine epidemic diarrhea virus, …, UniProt Q91AV1, strain).
T2 construct: Spike (S) protein of porcine epidemic diarrhea virus strain PEDV-JSXH-2021; band of approximately 180 kDa on the blot; the plasmid was synthesised; also called PEDV S protein expressed in Sf9 cells; source: Sf9 cells infected with recombinant baculovirus rBV-PEDV-S; in fixed cells and in supernatant of sonicated cells; not shown: 3xFLAG, C-terminal, kept
Briefly: immunostaining of cells or tissue; IFA on Sf9 cells infected with rBV-PEDV-S (MOI 0.1, 48 h), fixed with 4% paraformaldehyde; diluted refolded VHH as primary antibody, mouse anti-His tag, then Alexa Fluor 488 goat anti-mouse IgG; uninfected Sf9 cells as mock. The settings on record: one partner purified.

The target in experiment [4] is T3, PEDV spike (S) protein, strain PEDV-JSXH-2021, bait pGBKT7-PEDV-S (Porcine epidemic diarrhea virus, …, UniProt Q91AV1, strain).
T3 construct: Spike (S) protein of porcine epidemic diarrhea virus strain PEDV-JSXH-2021 (G1b type); source: yeast two-hybrid fusion (AH109)
Briefly: two-hybrid; yeast AH109; bait in pGBKT7, prey in pGADT7; growth on SD-TL, SD-TLH, SD-TLHA and blue colour on SD-TLHA + X-α-gal, 30 °C, 3–4 days; positive clones verified again after the library screen. To be noted: partners not purified.

B1: VHH1–41 (recombinant, pcDNA3.1-VHH, 6 × His) (VHH)
VHH: QVQLQESGGGLVQAGGSLRLSCAASGSIFTFVRMGWYRQAPGKERELVAGIAIGSITYYADSVKGRFTISRDNAKNTVYLQMNSLKPEDTAVYYCAAQSVQKAETTSPFAYWGQGTQVTVSS
Turning to B1, in experiment [1], the “concentration of VHH that completely neutralises infection of Vero E6 cells by PEDV-JSXH-2021 (serial dilutions from 200 ng/µL, read by IFA after 5 to 7 days)” value (“concentration” for short) came out at 25 ng/µL.

B2: VHH2–77 (recombinant, pcDNA3.1-VHH, 6 × His) (VHH)
VHH: QVQLQESGGGLVQAGGSLRLSCAASGYISDAYYMGWYRQAPGKEREFVATITHGTNTYYADSVKGRFTISRDNAKNTVYLQMNSLKPEDTAVYYCAVFSTISVNIYTFLYVIFFYWGQGTQVTVSS
For B2, the “concentration” value in experiment [1] came to 12.5 ng/µL.

B3: VHH2–50 (recombinant, pcDNA3.1-VHH, 6 × His) (VHH)
VHH: QVQLQESGGGLVQAGGSLRLSCAASGYISDAYYMGWYRQAPGKEREFVATITHGTNTYYADSVKGRFTISRDNAKNTVYLQMNSLKPEDTAVYYCAALFSIIVYYFSNSNLVFNYWGQGTQVTVSS
As to B3, the “concentration” value in experiment [1] was 25 ng/µL.

B4: VHH1–4 (recombinant, pcDNA3.1-VHH, 6 × His) (VHH)
VHH: QVQLQESGGGLVQAGGSLRLSCAASGTIFCYGGMGWYRQAPGKERELVAGITMGTSTNYADSVKGRFTISRDNAKNTVYLQMNSLKPEDTAVYYCAAAVMVAGPYQSWHGYWGQGTQVTVSS
For B4, in experiment [1], the “concentration” value is 100 ng/µL.

B5: VHH2–18 (recombinant, pcDNA3.1-VHH, 6 × His) (VHH)
VHH: QVQLQESGGGLVQAGGSLRLSCAASGYISDAYYMGWYRQAPGKEREFVATITHGTNTYYADSVKGRFTISRDNAKNTVYLQMNSLKPEDTAVYYCAASSLRKVLMTQLPTRLYYYWGQGTQVTVSS
Consider B5, for which the “concentration” value in experiment [1] was found to be 50 ng/µL.

B6: VHH1–15 (recombinant, pcDNA3.1-VHH, 6 × His) (VHH)
VHH: QVQLQESGGGLVQAGGSLRLSCAASGYISDAYYMGWYRQAPGKEREFVATITHGTNTYYADSVKGRFTISRDNAKNTVYLQMNSLKPEDTAVYYCAVLETRSYSFRYWGQGTQVTVSS
notes: same VHH as m2; also called PEDV S-VHH; not shown: His6, C-terminal, kept
As for B6, the binding result in experiment [2] and in experiment [3] was “binds” in each case.

B7: VHH1–15 (pGADT7-VHH library clone) (VHH)
VHH: B6 VHH
notes: clone from a synthetic nanobody yeast library; also called PEDV S-VHH; source: yeast two-hybrid fusion (AH109)
For the molecule B7, the binding result in experiment [4] was “binds”.

B8: VHH2–28 (recombinant, pcDNA3.1-VHH, 6 × His) (VHH)
VHH: QVQLQESGGGLVQAGGSLRLSCAASGSISLHPQMGWYRQAPGKERELVAGIATGGNTNYADSVKGRFTISRDNAKNTVYLQMNSLKPEDTAVYYCAVNEYHPRAMYALYIYWGQGTQVTVSS
Regarding B8, in experiment [1], the “concentration” value turned out to be 50 ng/µL.

B9: VHH1–89 (recombinant, pcDNA3.1-VHH, 6 × His) (VHH)
VHH: QVQLQESGGGLVQAGGSLRLSCAASGYISDAYYMGWYRQAPGKEREFVATITHGTNTYYADSVKGRFTISRDNAKNTVYLQMNSLKPEDTAVYYCAVFLARIASFLPILLISLRYWGQGTQVTVSS
Turning to B9, the “concentration” value in experiment [1] came to 12.5 ng/µL.
